Test results: IntAct's records for PubMed 26859459

B1: Mitogen-activated protein kinase kinase kinase 21 (Homo sapiens), Q5TCX8 (parent)
chain: MALRGAAGATDTPVSSAGGAPGGSASSSSTSSGGSASAGAGLWAALYDYEARGEDELSLRRGQLVEVLSQDAAVSGDEGWWAGQVQRRLGIFPANYVAPCRPAASPAPPPSRPSSPVHVAFERLELKELIGAGGFGQVYRATWQGQEVAVKAARQDPEQDAAAAAESVRREARLFAMLRHPNIIELRGVCLQQPHLCLVLEFARGGALNRALAAANAAPDPRAPGPRRARRIPPHVLVNWAVQIARGMLYLHEEAFVPILHRDLKSSNILLLEKIEHDDICNKTLKITDFGLAREWHRTTKMSTAGTYAWMAPEVIKSSLFSKGSDIWSYGVLLWELLTGEVPYRGIDGLAVAYGVAVNKLTLPIPSTCPEPFAKLMKECWQQDPHIRPSFALILEQLTAIEGAVMTEMPQESFHSMQDDWKLEIQQMFDELRTKEKELRSREEELTRAALQQKSQEELLKRREQQLAEREIDVLERELNILIFQLNQEKPKVKKRKGKFKRSRLKLKDGHRISLPSDFQHKITVQASPNLDKRRSLNSSSSSPPSSPTMMPRLRAIQLTSDESNKTWGRNTVFRQEEFEDVKRNFKKKGCTWGPNSIQMKDRTDCKERIRPLSDGNSPWSTILIKNQKTMPLASLFVDQPGSCEEPKLSPDGLEHRKPKQIKLPSQAYIDLPLGKDAQRENPAEAESWEEAASANAATVSIEMTPTNSLSRSPQRKKTESALYGCTVLLASVALGLDLRELHKAQAAEEPLPKEEKKKREGIFQRASKSRRSASPPTSLPSTCGEASSPPSLPLSSALGILSTPSFSTKCLLQMDSEDPLVDSAPVTCDSEMLTPDFCPTAPGSGREPALMPRLDTDCSVSRNLPSSFLQQTCGNVPYCASSKHRPSHHRRTMSDGNPTPTGATIISATGASALPLCPSPAPHSHLPREVSPKKHSTVHIVPQRRPASLRSRSDLPQAYPQTAVSQLAQTACVVGRPGPHPTQFLAAKERTKSHVPSLLDADVEGQSRDYTVPLCRMRSKTSRPSIYELEKEFLS
partner: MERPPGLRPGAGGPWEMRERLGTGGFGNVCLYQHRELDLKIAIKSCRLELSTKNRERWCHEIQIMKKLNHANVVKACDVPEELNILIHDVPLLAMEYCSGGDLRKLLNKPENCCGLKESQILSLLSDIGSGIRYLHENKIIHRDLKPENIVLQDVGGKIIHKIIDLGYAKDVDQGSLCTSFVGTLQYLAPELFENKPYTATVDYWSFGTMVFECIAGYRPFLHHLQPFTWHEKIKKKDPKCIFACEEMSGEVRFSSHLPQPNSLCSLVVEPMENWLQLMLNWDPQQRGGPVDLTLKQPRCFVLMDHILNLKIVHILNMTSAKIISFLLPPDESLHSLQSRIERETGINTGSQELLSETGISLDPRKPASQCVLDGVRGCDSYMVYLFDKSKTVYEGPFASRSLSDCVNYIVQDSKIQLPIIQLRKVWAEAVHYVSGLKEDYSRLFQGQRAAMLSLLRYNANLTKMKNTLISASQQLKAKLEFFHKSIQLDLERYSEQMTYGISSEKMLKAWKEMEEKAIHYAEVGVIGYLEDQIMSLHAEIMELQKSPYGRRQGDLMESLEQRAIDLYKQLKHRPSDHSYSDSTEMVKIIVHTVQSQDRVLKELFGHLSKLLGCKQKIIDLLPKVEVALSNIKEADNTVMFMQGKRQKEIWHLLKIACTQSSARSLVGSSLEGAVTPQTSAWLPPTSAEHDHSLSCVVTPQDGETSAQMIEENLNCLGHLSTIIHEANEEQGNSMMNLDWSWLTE

Variants of: B1
Settings: with ikka_human CHUK

Row | Variant | effect of a mutation on the interaction
1 | K151A | decreasing interaction strength
